In the DeepSol protein solubility set:

Assay: soluble on expression in E. coli; label from the status in PepcDB or PDB records

Sequence | soluble on expression in E. coli
MSLEDVIEKLRELNEPVPVPLELPEEELLVEIEEELLIGIPAEFREFLLLVSDVVYGRLEPVTVTDPHSHTYLPEVAATAWDLGVPRELIPLCEDDGSYYCVAEDGEVVLWADGDLTDESWDSVWVWARDVWLESEGHHHHHH | soluble
MSLEEATVEDIMIPRTEIVGIDLDDPWSETLERLTNSQYTRMPVYRGTVDHVMGFVHVRRIVGDLVRGNFTPEDLQARLKEPFFIPEGTGLHTQLLKFQRQRERVGLVVDEYGEILGLAALDDILEEIVGEFTTDPGTLTRSINRQDDGTYLVEGSATVRELNRVLGWELETSGPKTLNGLILERLETIPEAGTSLLIDGYPVTIVQTQGNRVKTAEIQPERPPSVQREGHHHHHH | soluble
MSLEEAVDLSVLYVEDDELSRSGIFNALKRKVKNIHFAANGQEGLEVFKEHRPDVVITDIKMPLLNGLEMAKQILEMEPSVEIIVATAFEDAELFKRAIDLDVDKYLTKPLDVTQILMHLKRIEMQKRLEREFEVYSRALNEVASIFWFDLELECLKVNPRAIASGGEHGVENEKLKEMARLALEKGGRHQEGNKIFSVAFNVAKEPKGFCLCVMESMEEGHHHHHH | soluble
MSLEEKPKYKRILLKLSGEAFAGEQGYGIDPAFLEYISHEIKNVYDLGVQVAIVIGGGNIFRGFQGKEIGVDRATADYMGMLATVINALALQSALENHVNIPTRVLSAIEMRQVAEPYIRRRAIRHLEKGRIVIFAGGTGNPFFSTDTAAALRAAEIGAEVLIKATKVGGIYDKDPEKYPDAVLIKEISYLEVINMGLKVMDHTALTLCKENEIPIIVLNVKEKGNLRRAVLGEEVGSVVRGEGHHHHHH | soluble
MSLEFKGELTFEQELALSDMTSKENGLLHAETGFGKTVLGAALISERKTKTIILVHNKQLLDQWLDRLNCFLTFEEEEAIRYTASGREKVIGYVGQYGGTKKWLSKLVDVVMIQSLFKLENSQSLLDEYEMMIVDECHHVSALMFEKVVAQFRGKYLYGLTATPERKNGHEPIVFQRIGEILHTADKRETDFKRQLQLRFTSFGHLEIEKTKASNFIQLSDWIATDSVRNQMILKDILAQVAEGRNILVLVNRIQQIDVFEKLLKEKEVDDCYIISGKTKVRERTSLLETLEQLDKGFVLLSTGKYIGEGFDLPQLDTLILAAPFSWKNNLIQYAGRIHRNYKDKSLVRIFDYVDIHVPYLEKMFQKRQVAYRKMDYRVIEGEGHHHHHH | not soluble
MSLEHAAEILANRYVRGDALTNPDATKEYVRCKLGSYEREVFALLLLDNQNRLIEFKELFQGTVDAASVYPREVVKAVLEVNAAAVIFAHNHPSGDSTPSQADRRITERLKDTLALVDVRVLDHIVTGDTCTSFAERGWLEGHHHHHH | not soluble
MSLEIKNVSKQIGDRKILDNISLTIDKGSLVVLIGSSGCGKTTTLKLINKLITPTSGEIFINGKSLAKENPIELRRNIGYVIQNNGLFPHLTIKENIELIPRLKKGKDVEKIEKTTLDLLNMVGLDPEIYLNKYPSELSGGQQQRVGFARAFATDAEIILMDEPFSALDPITRTSLQEELFNIQEELKKTIIFVTHDMDEALKIADKICIMNGGKIAQYDTPENILRNPANDFVRDFIGSDRVWNNPDFIKAKDIMIKNPVSVKGARTILQGIEIMRSNKVDSLLVIDKENVLKGIVTFKDIKITNEKSRALSEIMSENPLRVNEDDSLVDILTVMNENSVGFIPVVNSEEKLVGLITRSSLLSILSDQFLDMEVNIFEEGHHHHHH | soluble
MSLEKVGTIGVAIPSATHGFMGGLNFHAQDTIKRLQQVYPQLDFVLATAGNAGKMVNDIEDMVATRNISALVVLPFESEPLTSPVQAVKEAGIWVTVVDRGLSVEGIEDLYVAGDNPGFGRVAGEYFAQHLESGKKIVVLRGIPTTLDNERVEAFTAAIEGSGIEVLDMQHGNWNRDDAFNVMQDFLSKYPQIDAVWAADDDMAIGAMEAIAQAGRTEEMWVMGGAGMKEIIRRIADGDPQLPANVTYPPAQISTAIELTALKLVSSTPVSGRFIIGSQLVTPENAEQFYFPDSEGHHHHHH | soluble
MSLENKENLVVIDLAIAEDSIQKKNIVYDKNGQNHFDVISAFIKSIRGSDPDATLYWLANMVEAGEDPNFIFRRLLISACEDIGLADPNAIVVVQSCCDAFDRVGFPEGLFFLSQASLYLAISPKSNSTKSIFKAMEAIKATNVSLVPNHLKNNASNYLNPHNYQGKWLQQEYLPTDLQGIKFWKPKDSGWEKNKYEDLPKKQKSEGHHHHHH | soluble
MSLENYLEEELIIGGIEINYLYVCKTKLWYFVRGITMEQESDFVDLGKFLHEKSYFGEEKEVQIGSIKIDFIKKRDVIEIHEVKRGKQMEKAHIMQVLYYIYYLNSLGIKSKAILHYPKLKEIKEIELKENNKEEIKRAIKEIEYIKSLKEPPEPIYQKICKNCAYYELCFIEGHHHHHH | soluble
MSLERIEPGPDTIRVLLTTDNHVGAFENDPIRGDDAWKTFDEITTIAKDKDVDMIIQGGDLFHINKPTKKSMYHVMKSLRSNCMGDRPCELELLSDPAQSLNNGFDEINYEDPNLNISIPVFAISGNHDDATGESLLLALDVLAVTGLINNFGKVKNTEAITVSPILLQKGQTKLALYGMSNVRDERLHRLFRDGGVKFQRPNIQTEDWFNLFVIHQNHAAHTYTSSIPESFLPNFLDFILWGHEHECIPYPVHNPETTFDVLQAGSSVATSLAEGEVADKKIFILNIKGKDYSIEPVELKTVRPFVLREIILLKTDLIPGAASKADVIAYLTDEVEKSIERANKQFSEGHHHHHH | soluble
MSLERLIPIIAPQVPEKPLLNDSLGSGIGCSATLGRSTKFEDNFMCLKQDNVLFVGVFDGHAGHESALISAECFTKILPSFDFTNAIHQKNPEKDEENIQKFDFPKVENHLSPRRNHFRNVKTQENQIFGSQKIETKNIKNTQKIELKNSEKIELENSKGSENLNTKLIKTYLRMAFAQVNDELRNRKVKDGTTAVVVCLFENRKGAVAHVGDSLALLVGQTTSKLLTKMHRPSDKDEFYRMRKRNKSVSSDWKVDGKLSVSRSLGDFWCCGGMFDDADVSFFDLNDDALSIVLGCDGLWDYVDEGTVCNVVRELRDPVKAAKLLQDIAFASGSHDSISVIVVNVEPTEGHHHHHH | soluble
MSLESILITGASGFIGSFIVEEALKRKFGVWAGIRPTSSKKYLKNRKIHFLELDFAHPNELRAQLSGHKGTYNKFDYIIHCAGVTKCPDKNTFDYVNYLQTKYFIDTLKALNMVPKQFIYISTLSVFGPVREKDYSPIEAGDVPMPNTAYGLSKLKAELYIQSIPGFPYVIYRPTGVYGPRELDYFLMAKSIRQHVDFSVGFRRQDLTFVYVKDIVQAIFLGIEKKVTRRAYFLTDGKVYNSRVFSDLIQKELGNPFVIHVKCPLIVLKVISLLAEFIATRSGKSSTLNSDKYKIMKQRNWQCDITPAINELGYAPEYDLEKGVRETIDWYKNEGWEGHHHHHH | soluble
MSLESKPVVFHDVPQDHWAFEAISDLGNAGIIAGYGHGIFGLGDDVTREQVAALIYRSMEGIEEKEEYENPYGDLDEHGSTLFLEEILALTEMGIFQGDEQGNFRPKDTLTRAEMAQVIATAFDLEVKAPHSFNDVPANSWAKDAISAVQSNQIAAGIGQGKFAPEMKVTREQYAQFLYNALTNEHAEEGHHHHHH | soluble
MSLESLAAKVVERLNRAESAAELRFCHDELARELRRCLAPEQMKQLAGDVVCVHEAILRRAFFLAERETMKRSVGIRPPAWCWYVMGSIGRCEPTIWTDQDHGILFNCPEEEEAACYEFIRHMAAVGVDMLHEAGYPYCSGYVMATNKRWAQSVRGWEQQLSSYLDSGWPNDIRFLLIAMDMRPLYGEAELAEKARKALFAAVAKRPPLLARMGEHVQFPPVPLGWLGNVQTERWGPYSGAVHMKQSGYVQLTNALKWLACFAHVPTAGTAERRRALEANGVLTAPLSDAVCEALSVYYSIRLKYSTEAGDGREYVLWRALERTEQKQLKQAMRTAKRLQRFVARRVANIHAEGHHHHHH | soluble
MSLESVKCIFERHPDFASKFRPKNRHMKSTYMTVLLGLIKTMCQLPEELTDDDLDEASVAVSYVENGGLRLDWLEKKLAEVKAKKKKVETGKARLQRAEEELQKLNQKCLEMKAFLEKENADVSEANVPLSFEDVVSMIPLPNLHAKNAGYLVNGEVKIVVEINDLEVIGKLDVSEESEETNQPLKKIKLDDNDAVSFDSLNETSPVKESIDVNGFQVLPSEGHHHHHH | soluble
MSLETFTGIRYETAVERVANGGFTDLPRQIEWRKALAAFQSAPIFGHGWNSFAQQTFLINAEQHNIHDNLLSNLFTHSHNIVLQLLAEMEGHHHHHH | not soluble
MSLETGVTNDAIIIGQSAAMSGPAGKLGQQMNLGAKLYFKSINAAGGIYGRKIELKVLDDFYEPEAAERNTKTLINDTKVFALFGYVGTPTSLAALKVANPAGVPFFAPYSGAMALREPFARNVFHVRASYNDETAAIVQQIRTTGHKRVAVVYNDDSYGAAGLAGVKRALALPENKAVALAVEASVPRNSTTVKAALSKVLPSKADSVVVISTYQTTAALVKEALAEGFTGQFYNVSFVGTKELADALGSAGGGVVVSQVMPFPHSMSSALTRDYEKLLKADGVTSFDYGSMEGYIAARIFVEGLKRAGRDLTREKLITALETMGSTDLGGFAVSFSPTNHVASKFVEMTVINSHGQVIREGHHHHHH | soluble
MSLEVVLWDFDGVIFDSMHLKNEGFRALFQKHGNKNQESLKQFEVYHYQSGGISRNEKIQYFYNEILKTPIAQEEVDALALEFGTIIEQKLFDREHLNSEVMAFIDKHYKNHVFHIASAALHSELQVLCEFLGIIKYFKSVEGSPPNKPKIIANIIQKYAYNPGRMLMIGDSVNDYESAQANEVAFLGYNSKVLKNLVGQNGYQGKYLESFKGFDLQNFIKEGHHHHHH | soluble
MSLFKIRMPETVAEGTRLALRAFSLVVAVDERGGIGDGRSIPWNVPEDMKFFRDVTTKLRGKNVKPSPAKRNAVVMGRKTWDSIPPKFRPLPGRLNVVLSSTLTTQHLLDGLPDEEKRNLHADSIVAVNGGLEQALQLLASPNYTPSIETVYCIGGGSVYAEALRPPCVHLLQAIYRTTIRASESSCSVFFRVPESGTEAAAGIEWQRETISEELTSANGNETKYYFEKLIPRNREEEQYLSLVDRIIREGNVKHDRTGVGTLSIFGAQMRFSLRNNRLPLLTTKRVFWRGVCEELLWFLRGETYAKKLSDKGVHIWDDNGSRAFLDSRGLTEYEEMDLGPVYGFQWRHFGAAYTHHDANYDGQGVDQIKAIVETLKTNPDDRRMLFTAWNPSALPRMALPPCHLLAQFYVSNGELSCMLYQRSCDMGLGVPFNIASYALLTILIAKATGLRPGELVHTLGDAHVYSNHVEPCNEQLKRVPRAFPYLVFRREREFLEDYEEGDMEVIDYAPYPPISMKMAV | soluble
MSLFLNRLSLPKDYFIDTFLYYSDQDIAQISSYLPESNVSANVPGFKKNFVLKVFDHKIKPGETLSHVAARYQITSETLISFNEIKDVRNIKPNSVIKVPNMKGIVYIVKKNDSISSIASAYNVPKVDILDSNNLDNEVLFLGQKLFIPGGRLPKDFLKEVLGETFIYPVQGVITSGYGYRPDPFTGVISFHNGIDIANLANTPIKASREGVVVTAGFNAGGYGKYIVISHSNGFQTLYAHLNSFAVKVGKKVSRGAVIGYMGSTGYSTGNHLHFTIFKNGKTENPMKYEGHHHHHH | not soluble
